Test results published in the DeepSol protein solubility set.

test: soluble on expression in E. coli; label from the status in PepcDB or PDB records

Sequence	soluble on expression in E. coli
MGSDKIHHHHHHMDTKAFKRSLQHSENYNRKGFGHQAEVATQLQSEYQSNLIQEIRDRNYILQRGDVTIRLAQAFGFCWGVERAVAMAYETRQHFPTEHIWITNEIIHNPSVNQRMQEMEVEFIPIEGKNKDFSVVGTGDVVILPAFGASVQEMQILHDKGCKIVDTTCPWVSKVWNTVEKHKKIDYTSIIHGKYKHEETVATSSFAGKYLIVLNLQEAQYVADYIINGGNREEFLTKFAKACSAGFDPDRDLERVGIANQTTMLKDETEQIGKLFERTMLQKYSPIELNQHFQSFNTICDATQERQDAMLELVEHNLNLMVVIGGFNSSNTTQLQQIAFERRIPSYHIDTVERIKSGDSIEHRQLNGQLITTENWLPDGEIVVGITSGASTPDKVVEDVIEKIFAVKATAALV	not soluble
MMTDKLNLNVLDAAFYSLEQTVVQISDRNWFDMQPSIVQDTLIAGAIQKFEFVYELSLKMMKRQLQQDAINTDDIGAYGFKDILREALRFGLIGDMSKWVAYRDMRNITSHTYDQEKAMAVYAQIDDFLIESSFLLEQLRQRNQYD	soluble
MGSDKIHHHHHHMSAEDYKNLPVTVEKPIPVVYDLGNLAAFDSNVLDKNDLDSSNARREEKIKSLTRDNVQLLINQLLSLPMKTTTESVGGTGGQSSVMTLLQLPDPTTDLPREKPLPKAKAMTKWEKFAAKKGIKPKERAGKMIYDEASGEWVPKWGYKGANKKLDDQWLVEVDDKVKGTDNELIDPRTLNRAERKRLVKKNEKQQRRNMKNAL	not soluble
GSHMVVELAYTDPDRAVDWLVRVFGFRLLLRQPAIGTIRHADLDTGGGIVMVRRTGEPYTVSCAGGHTCKQVIVWVSDVDEHFMRSTAAGADIVQPLQDKPWGLRQYLVRDLEGHLWEFTRHLRDVPPREWGAVAMT	soluble
MSLRPGQVDNDVINLVAMLFEFILDDRHLHSVMKSLLGRLQIPILKVALTDKNFFNRGGHPARKLLNEMALAATGWTEKRPGQRDPLLDKISAVVNRILAEFSTDVSLFNELLDDFNQFSDLDQRRSDLVEQRLRDAEEGRARHEQATADTKELLHEAMDGRLLPEPVQDMLNGPWSHYLHWLALHESTDSEAWQRAKTLTEQLIWTIDPVPLTATTHELLQQAIPQVIEQLRGALEGVAWDGLSVEMVVRDLELVHLDVFQRLVIAPSEAAGNDHAQIDDSQEAPAVRADAVPSDTTNTSADVSHPAPALPVAADDPKEAVVARVPEPTRAQPVVAEEWLAKADGLRVGCWLELNRDGSQIRCKLAAFIRAVDKYIFVNRSGAKVAEYRRNELAEMMAQGHIEILDDGLIFDRALESIIDNLRTSRREGHHHHHH	soluble
MNEIHQPLARRVWRSNVDEEMARMAECLKRFPLIAFDTEYPGIIFRTYFDSSSDECYRAMKGNVENTKLIQCGFTLFNAKGEIGGVWEINFSNFGDPSDTRNELSIEFLRRHGLDLQKIRDEGVDMFGYGFFPKLMTVFRSQKHVEFVTFQGAYDFAYFLSILNHGKLPETHGEFATEVVKVFGQVYDTKVMAGFCEGLGEHLGLSKLAQLLQITRVGRAHHAGSDSLMTALVFIKLKHVYEDSRFARGLIYGIGKSNLVAAPAPAPVPEPTLPLMCQQNVASYPVFHNGYVQNYEQPQLVSYDPSGAPWAFCNATGTYVQLTHLPASTFAYPSQTPSATVDYLGPVPNYYNNNACYVVE	soluble
MKRIRLWGLMAGLLLLLVGCGRAETTGVTKPVTTQGHRYIPTLFFHGWGSSYHAETHMADAIVKAGKTQTIVRAMVAKNGTVTLKGHFRSGDYRPIVEVNFANNRSSDYPTVGRWAKNVVVALQRTYGITSFNMVGHSMGNMAITYYLLANAQNKRLPQLRQQVAIAGHFNGILGMDDSPNQMTLNAAGRPNKLRPAYRQLLGLRRVYPRQQVRVLNIYGDKGDGTHSDGSVSNASSRSLRYLVAARARSYREVKLTGKHAQHSQLHENAQVDRLLIDFLWPTH	not soluble
GMEFNHLTKQLNQLLAQDYVAFSITENPVVQMLSQASFAQIAYVMQQYSIFPKELVGFTELARRKALGAGWNGVAQELQENIDEEMGSTTGGISHYTLLADGLEEGLGVAVKNTMPSVATSKLLRTVLSLFDRQVDYVLGATYAIEATSIPELTLIVKLVEWLHEGAIPKDLQYFFSKHLDEWEIEHEAGLRTSVAAYIQPEEFGEFAAGFRAMIDAMQVWWQELAQEAISSEVVLSTAIAQHH	soluble
MGSDKIHHHHHHMTNGRILFIREREFARSNVINYGMALVATAASKAFSVRAIDNNGLYRLYSHDDIAAEVEHFRPDVIGLSIITANALTSYETAEMLKRRFPDIPILAGGLHVSHQVGEALESGIDYVVRGEADLTIVPLLSALVEARDRGMPPDFTGIAGVSHGRGEAFVDGGNATLPLNLDEHSDVDFGLYDLGDFYRHPRDSLAIGSVLTQRGCPFRCTFCSDQYLSQSVRYRSIARSVDEIEDKLDRFGVNIFNIRDADFTMHNERVVEFCNELIRRGLHNRINLTIETDSFRVIPRDTLALMKQSGFSSIGFGIERLTPEIQRRIKKNISRSRIMENLKNCRELGFVISVHCLIGFSFDTMEDIAREQALFDELADQYVDIVSASIVVACPGTSEFSAVPPERSSWYLNPSAFPSRRPLYQVVRRFQYDPRHVPIYDFPPGMMERMMDFRDHFRKKTIGKRGRPLLWAYLLMLQIARLSEALYAASPRLERATFGWTLDWLETLNAIFTKLWAKRNDDRVNANHSCGQTPQP	not soluble
MQAYRGTGKTSQLISQKKPISILILGVDQGIEGRHDRGNSDTMILATMNPEKKEATMTSIPRDLLADIKGDGRGEGKYYMFRANSAYQVGGSKGATRTVKALLNTPVNYYMEVNMKALESMVEALGGVDVNVPFTFTYHTHFRKGKQHLNGKEALDYVRMRKEDPKGDYGRQMRQRQVINDIVRKGMSVNSITNYRKILKVFAKYVKTNLTFDDMLSIAMNYRGCTQNIKSGYIQGHNVWIGAAAMQVASTKELQRVSDLVRSSLGLKQEKLEHHHHHH	soluble
MGSDKIHHHHHHMSSLQILQGTFRLSDTKTLQLPQLTLNAGDSWAFVGSNGSGKSALARALAGELPLLKGERQSQFSHITRLSFEQLQKLVSDEWQRNNTDMLGPGEDDTGRTTAEIIQDEVKDAPRCMQLAQQFGITALLDRRFKYLSTGETRKTLLCQALMSEPDLLILDEPFDGLDVASRQQLAERLASLHQSGITLVLVLNRFDEIPEFVQFAGVLADCTLAETGAKEELLQQALVAQLAHSEQLEGVQLPEPDEPSARHALPANEPRIVLNNGVVSYNDRPILNNLSWQVNPGEHWQIVGPNGAGKSTLLSLVTGDHPQGYSNDLTLFGRRRGSGETIWDIKKHIGYVSSSLHLDYRVSTTVRNVILSGYFDSIGIYQAVSDRQQKLVQQWLDILGIDKRTADAPFHSLSWGQQRLALIVRALVKHPTLLILDEPLQGLDPLNRQLIRRFVDVLISEGETQLLFVSHHAEDAPACITHRLEFVPDGGLYRYVLTKIY	not soluble
GPGSMLNTFMFPGQGSQAKGMGGALFDRFADLTAQADAVLGYSIRALCVDDPRDELGRTQFTQPALYVVNALTYYAKCEDSGETPDFLAGHSLGEFNALLAAGCFDFETGLKLVARRAELMSQARDGAMAAIVNASREQIERTLDEHGLVDTAIANDNTPSQLVISGPAHEIARAEALFQHDRVRYLRLNTSGAFHSKFMRPAQQAFAAHLQSFRLADPAIPVISNVSARPYENGRVSEGLAQQIASPVRWCESIRYLLALAAERGEAIEFTELGHGDVLTRLVHTIRRQTPAPAAAATSARARPTPPGEPERPAQQTAAAPRASDSASASLGAAERVAAWNRDYPVGTRVRSSLIHDDVLETRTPATVLFGHRAAVYMKGYNGYFDLAEVTPA	soluble
MGSDKIHHHHHHMLYVTGITGHSGQWFVKRLISEGYKGRIRCIVLPESDTDFLNKSGLDIDIVSGNLNDQEFLTSTMVGCSTVLHIASIDFSRNVVKAALDNNLDWAILVHTTGRYSKYKSASAEYIEIEEYVLKFRNRMGITVLRPTMIYGSSRDRNMYKLITFLHKIKFFPMFGEGENLMQPVHARDLGNAYYDVIVNRSTTFNKGYNLPGKRPLTYMELVRTVSDTLGRKNVIIKIPLWFSILAARVYNALDKNAIISVEQVLRMQEDKAFDYEDAVRDFSYSPVSFEDGIVEEVNEYLARYNSSRTKQR	not soluble
